Reference: publication PMC6142219

Target: CBS–CP12 protein (IPF_2164) of Microcystis aeruginosa PCC 7806 (Microcystis aeruginosa PCC 7806)
Assay: SEC

## CBS–CP12 protein (IPF_2164) of Microcystis aeruginosa PCC 7806 (natural protein)
  stoichiometry N: 6
